± gives the uncertainty stated by the source.
B1: Dynamin-binding protein, residues 242 to 304; numbered along this chain, Q6XZF7 (parent)
chain: EEPGTYGVALYRFQALEPNELDFEVGDKIRILATLEDGWLEGSLKGRTGIFPYRFVKLCPDTR

Variants of: B1
Test: abundance fitness (aPCA) (normalised: wild type 0, dead -1); higher = more abundant; growth selection in yeast, the domain comes from the species named
Details: Homo sapiens

Variant | abundance fitness
EEPGTYGVALYRFQALEPNELDFEVGDKIRILATLEDGWLEGSLKGRDGIFPYRFVKLCPDTR [T48D] | -0.818 ± 0.11
EEPGTYGVALYRFQALEPNELDFEVGDKIRILATLEDGWLEGSLKGRVGIFPYRFVKLCPDTR [T48V] | -0.075 ± 0.048
EEPGTYGVALYRFQALEPNELDFEVGDKIRILATLEDGWLEGSLKGRAGIFPYRFVKLCPDTR [T48A] | -0.699 ± 0.11
EEPGTYGVALYRFQALEPNELDFEVGDKIRILATLEDGWLEGSLKGRTGEFPYRFVKLCPDTR [I50E] | -0.341 ± 0.15
EEPGTYGVALYRFQALEPNELDFGVGDKIRILATLEDGWLEGSLKGRTGIFPYRFVKLCPDTR [E24G] | -0.596 ± 0.073
EEPGTYGVALYRFQALEPNELDFEKGDKIRILATLEDGWLEGSLKGRTGIFPYRFVKLCPDTR [V25K] | 0.095 ± 0.14
EEPGTYGVALYRFQALEPNELDFEYGDKIRILATLEDGWLEGSLKGRTGIFPYRFVKLCPDTR [V25Y] | -0.463 ± 0.086
EEPGTYGVALYRFQALEPNELDFEVGDKIRILATLEDGWLEGSLKGPTGIFPYRFVKLCPDTR [R47P] | -1.09 ± 0.4
EEPGTYGVALYRFQALEPNELDFEVGDKIRILATLEDGWLEGSLKGRTGIFPYRFVKLCPDYR [T62Y] | -0.127 ± 0.052
EEPGTYGVALYRFQALEPNELDFEVGDKIRILATLEDGWLYGSLKGRTGIFPYRFVKLCPDTR [E41Y] | -0.274 ± 0.072
EEPGTYGVILYRFQALEPNELDFEVGDKIRILATLEDGWLEGSLKGRTGIFPYRFVKLCPDTR [A9I] | -0.737 ± 0.097
EEPGTYGVELYRFQALEPNELDFEVGDKIRILATLEDGWLEGSLKGRTGIFPYRFVKLCPDTR [A9E] | -0.73 ± 0.41
EEPGTYGVALYRFQADEPNELDFEVGDKIRILATLEDGWLEGSLKGRTGIFPYRFVKLCPDTR [L16D] | 0.047 ± 0.063
EEPGTVGVALYRFQALEPNELDFEVGDKIRILATLEDGWLEGSLKGRTGIFPYRFVKLCPDTR [Y6V] | -0.135 ± 0.052
EEPGTQGVALYRFQALEPNELDFEVGDKIRILATLEDGWLEGSLKGRTGIFPYRFVKLCPDTR [Y6Q] | -0.927 ± 0.31
EEPGTYGVALYRTQALEPNELDFEVGDKIRILATLEDGWLEGSLKGRTGIFPYRFVKLCPDTR [F13T] | -0.831 ± 0.15
EEPGTYGVALYRFQALEPNELSFEVGDKIRILATLEDGWLEGSLKGRTGIFPYRFVKLCPDTR [D22S] | 0.101 ± 0.046
EEPGTYGVALYRFQALEPNELDFEVGDKIRILATLEDGWTEGSLKGRTGIFPYRFVKLCPDTR [L40T] | -0.394 ± 0.085
EEPGTYGVALYRFQALEPNELDFEVGDKIRILATLEDIWLEGSLKGRTGIFPYRFVKLCPDTR [G38I] | -0.769 ± 0.1
EEPGTYGVALYRFQALEPNELDFEVGDKIRILATLEDTWLEGSLKGRTGIFPYRFVKLCPDTR [G38T] | -0.983 ± 0.17
EEPGTYGVALYRFQALEPNELDFEVGDKIRILATLEDGWLEGSLKGRTGIFPYRFVKLPPDTR [C59P] | -0.546 ± 0.17
EEPGTYGVALYRFQALPPNELDFEVGDKIRILATLEDGWLEGSLKGRTGIFPYRFVKLCPDTR [E17P] | -1.01 ± 0.32

Variant | abundance fitness
EEPGTYGVALYRFQALEPNELDFEVGDKIRILATLEDGWLEGSLKGRTGIFPYTFVKLCPDTR [R54T] | -0.24 ± 0.094
ESPGTYGVALYRFQALEPNELDFEVGDKIRILATLEDGWLEGSLKGRTGIFPYRFVKLCPDTR [E2S] | -0.567 ± 0.087
EMPGTYGVALYRFQALEPNELDFEVGDKIRILATLEDGWLEGSLKGRTGIFPYRFVKLCPDTR [E2M] | -0.049 ± 0.15
EEPGTYGVALYRFQALEPNELDFEVGDKIRILATLLDGWLEGSLKGRTGIFPYRFVKLCPDTR [E36L] | -0.698 ± 0.1
EEPGTYGVALYRFQALEPNELDFEVGDKIRILATLFDGWLEGSLKGRTGIFPYRFVKLCPDTR [E36F] | -0.711 ± 0.1
EEPGTYGVALYRFQALEPNELDFEVGDKIRILATLGDGWLEGSLKGRTGIFPYRFVKLCPDTR [E36G] | -0.167 ± 0.056
EEPGTYGVAPYRFQALEPNELDFEVGDKIRILATLEDGWLEGSLKGRTGIFPYRFVKLCPDTR [L10P] | -0.7 ± 0.15
EEPGTYGVALYRFHALEPNELDFEVGDKIRILATLEDGWLEGSLKGRTGIFPYRFVKLCPDTR [Q14H] | -0.032 ± 0.074
EEPGTYGVALYRFQALEPNELDFEVGDKIRILATLEDGWLEGSLKGRTGIFPYRFVKLCPDTN [R63N] | 0.168 ± 0.064
EEPGTYGVALYRFQALEPNELDFEVGDKIRILATLEDGWLEGSLKGRTGIFMYRFVKLCPDTR [P52M] | -0.401 ± 0.23
EEPGTYGDALYRFQALEPNELDFEVGDKIRILATLEDGWLEGSLKGRTGIFPYRFVKLCPDTR [V8D] | -0.717 ± 0.15
EEPGTYGKALYRFQALEPNELDFEVGDKIRILATLEDGWLEGSLKGRTGIFPYRFVKLCPDTR [V8K] | -0.427 ± 0.17
EEPGTYGVALYRFQALEPNELDFEVGDSIRILATLEDGWLEGSLKGRTGIFPYRFVKLCPDTR [K28S] | -0.535 ± 0.074
EEPGTYGVALYRFQALEPNEPDFEVGDKIRILATLEDGWLEGSLKGRTGIFPYRFVKLCPDTR [L21P] | -0.782 ± 0.19
EEPGTYGVALYRFQALEPNELDFEVGDKIRILATLEDGWLEGSVKGRTGIFPYRFVKLCPDTR [L44V] | 0.012 ± 0.063
EEPGTYGVALYRFQALEPNELDFEVGDKIRILATLEDGWLEGSLCGRTGIFPYRFVKLCPDTR [K45C] | -0.429 ± 0.081
EEPGTYGVALYRFQALEPNELDFEVGDKIRILATNEDGWLEGSLKGRTGIFPYRFVKLCPDTR [L35N] | -0.544 ± 0.087
EEPGTYGVALYRFQALEPNELDFEVGDKIRILATLEDGWLEGSLKGRTGIFPYRDVKLCPDTR [F55D] | -0.621 ± 0.051
EEPGFYGVALYRFQALEPNELDFEVGDKIRILATLEDGWLEGSLKGRTGIFPYRFVKLCPDTR [T5F] | -0.057 ± 0.058
EEPGWYGVALYRFQALEPNELDFEVGDKIRILATLEDGWLEGSLKGRTGIFPYRFVKLCPDTR [T5W] | -0.132 ± 0.13
CEPGTYGVALYRFQALEPNELDFEVGDKIRILATLEDGWLEGSLKGRTGIFPYRFVKLCPDTR [E1C] | -0.189 ± 0.11

Source: the Human Domainome abundance scans (Beltran et al. 2025)
